Test: yeast display, Sf9 membrane polyspecificity reagent, FACS + sequencing; frameworks hold sequencing errors
Method in brief: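 Galactose induction of a Saccharomyces cerevisiae BJ5465 synthetic nanobody display library ran 36–48 hours. The cells were then stained for 1 hour at 4 °C with 10% biotinylated, detergent-solubilized Sf9 membrane reagent, pulled down on streptavidin microbeads and FACS-sorted into low and high (top ~1%) gates on expression and reagent-binding fluorescence. Labels for polyreactivity follow the gate of origin.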

| Sequence | polyreactivity (PSR sort gate) |
| --- | --- |
| QVQLVESGGGLVQAGGSLRLSCAASGSTSRQYAMGWYRQAPGKERELVAAITWSGASTNYADSVKGRFTISRDNAKNTVYLQMNSLKREDTAVYYCAAYRWVYPDVIYDYWGQGTQVTVSS | high polyreactivity |
| QVQLVESGGGLVQAGGSLRLSCAASGLTFDGYAMGWYRQAPGKERELVARITRNGGITYYADSVKGRFTISRDNAKNTVYLQMNSLKPEDTAVYYCAAGQRLWKYYGVIGWTVTNYYYWGQGTQVTVSS | high polyreactivity |
| QEQLHESGGGQVQAGGSLLLSCAASGNIIRYYYIGCYRQAPGKEPELVAAITYGTSTNYADSVKGRFTISRDNAKNTVYLQMNSLKPEDTAVYYCAVDVNYGDPLDNWGQGTQVTVSS | high polyreactivity |
| QDQHVESGGGLVQAGGSLRLSFADSGITFDYYAMGWYRQAPGKERELVAAISVSGGDTYYADSVKGRFTISRDNAKNTVYLQMNRLKPQDTSVYYCAAEEVSPRWYDYWGQGTQVTVSS | low polyreactivity |
| QVQILESGGGLVQAGGSLRLSCAASGFTFTGYALGWYSQAPGKERELVAAINARATSTYYADSVKGRFTISRDNAMNHVYLQIKSLIPEDTAVYFCAATFYRRYVDLGYWGQCTQVTVSS | high polyreactivity |
| QVQLVESGGGLVQAGGSLRLSCAASGSTFYYYAMGWYRQAPGKERELVAAISVRAGITYYADSVKGRFTISRDNAKNTVYLQMNSLKPEDTAVYYCAKDHWTTSYDEGDYWGQGTQVTVSS | low polyreactivity |
| QVQLVESGGGLVQAGGSFRLSCAASGRIFSPNAMGWYRQAPGKEREFVAAITWRAGTTYYADSVKGRFTISRDNAKNTVYLLMNSLKPEDTAVYYCAAGRRLGYGYWGQGTQVTVSS | high polyreactivity |
| QVQLVESGGGLVQAGGSLRLSCAASGRTFRWNAMGWYRQAPGKERELVAAISSGGSTYYADSVKGRFTISRDNAKNTVYLQMNSLKPEDTAVYYCAKSSFKYRWSYPVISMDYWGQGTQVTVSS | high polyreactivity |
| QVQLVESGGGLVQAGGTLRLSCAASGRIFTRYAMGWYRQAPGKERELVAAISYGGGVTYYADSVKGRFTISRDNAKNTVYLQMNSLKPEDTAVYYCATDDPLSQINEKGMDYWGQGTQVTVSS | low polyreactivity |
| QVQLVESGGGLVQAGGSLRLSCAASGFIIDDNTMGWYRQAPGKEMELVAAISYSAGSTYYADSVKGRFTISRDNAKNTVYLQMNSVKPEDTAVYYCAAQHYWVTSYLSSSDYWGQGTQVTVSS | low polyreactivity |
| QVQLVESGGGLVQAGGSLRISCAPSGRIFNINEMGWYRPARGKEREWVARITTGGRTNYADSVKGRFTISRDNAKNTFYLQMNSLKPADTAVYYCAARTYGQLGDYWGQGTQVTVSS | high polyreactivity |
| QVQLVESGGGLVQAGGSLRLSCAASGITFAYYVMGWYRQAPGKERELVAAISRSGSTYYADSVKGRFTISRDNAKNTVYLQMNSLKPEDTAVYYCAVLYIRWYTYEYWGQGTQVTVSS | high polyreactivity |
| QVQLVESGGGLVQAGGSLRLSCAASGSIFHYYAMGWYRQAPGKVRELVAAISSVGSTYYADSVKGRFTISRDYAKNTVYLQMNSLKPEDTAVYYCAAEAYAKRYVDRYSWYYYWGQGTQVTVSS | high polyreactivity |
| QVQLVETGGGLVQAGGSLRLRCAPSGSTFSEYAMGWYRQAPGKERELVPAITSGGITNYADSVKGRFTISRDNSKNTVYFKMNSLKPEDTAVYYCNTQDVYGDPVESLVDYDYWGQGTQVTVSS | high polyreactivity |
| QVQLLESGGGLVQSGGSLRLSCAASGFIFYSYAMGGYRQAPGKERELVAAITEDGDSTYYADSVKWRFTISRDNAKNTVYLQMNSLNPEDTAGYYCNTDLTFNGTSGAYDYWGQGTQVTVSS | low polyreactivity |
| QVQLVESGGGLVQAGGSLRLSCASSGIILYYYVMGWYRQAPGKERELVAAINRSGTSTYYADSVKGRFTISRDNAKNTVYLQMNSLKPEDTAVYYCAAERYWSGGVFDYDYWGQGTQVTVSS | high polyreactivity |
| QVQLVESGGGLVQAGGSLRLSCAASGRTIVFNAMGWYRQAPGKERELVAAITKNGGSTYYADSVKGRFTISRDNAKNTVYLQMNSLKPEDTAVYYCAVRRGYPFFYWGQGTQVTVSS | low polyreactivity |
| HDQHVESGGGLVQAGGSLRLSCAASGFTFYFYTMGWYRQAPGKERELVAAITGSGGSTYYADSVKARFTFSRDNAKNTVYLQMNSLKPEDTAVYYCAASYYPERVATWRGYYYWGQGTQVTVSS | high polyreactivity |
| QVQLVESGGGLVQAGGSLRLSCAASGSTFGSNAMGWYRQAPGKERELVAAIDANGGSTYYADSVKGRFTISRDNAKNTVYLQMNSLKPEDTAVYYCAAAGYWYYYVPNDYWGQGTQVTVSS | low polyreactivity |
| QVQLVESGGGLVQAGGSLRVSCAASGFTLQRNTMGWYRQAPGKEREFVAAISVRGGSTYYADSVKGRFTISRDNAQNTVYLQMNSLKPEDTAVYYCAAVGRPTQYSYPYGYWGQGTQVTVSS | high polyreactivity |
| QVQLVESGGGLVQAGGSLRLSCAASGSTFGPYVMGWYRQAPGKERELVATITSDDSTNYADSVKGRFTISRDNAKNTVYLQMNSLKPEDTAVYYCAVERDYWTKASYYWGQGTQVTVSS | low polyreactivity |
| QVQLVESGGGLVQAGGSLRLSCAASGSTFQPNAMGWYRQAPGKERELVAAITGGDNTNYADSVKGRFTISRDNAKNTVYLQMNSLKPEDTAVYYCAAGGLGSRWYVGYDYWGQGTQVTVSS | low polyreactivity |

| Sequence | polyreactivity (PSR sort gate) |
| --- | --- |
| QVQLVESGGGLVQAGGSLRLSCAASGFTFDDYTMGWYRHAPGKERELVAAITSSGDSTYYADSVKGRFTISRDNAKNTVYLQMNSLKPEDTAVYYCAAQSYPFDRDYWGQGTQVTVSS | high polyreactivity |
| QLQLVESGGGLVQAGGSIRLSCAASGSIFDWYAMGWYRQEPGKERELVARITSGGRTNYADSVKGRFTISRDNAKNTVYLQMNSLKPEDTAVYYCAAGRVSWSPYYYWGQGTQVTVSS | high polyreactivity |
| QVQLVESGGGLVQAGGSLRISCAASGSTFRGYAMGGYRQAPGKERDLVAAMSSNGDRTFYADSVKGRFTISRDNAMNTVYLLMNSLKAEDTAVYYCNAVYSGSWQLYGYWGQGSQVTVSS | high polyreactivity |
| QVQLVESGGGLVQAGGSLRLSCPASGLIYYRYVMGWYRQAPGKERELVAAISGNGASTYYADSVKGRFTISRDNAKNTVFLQMNSLKPVDTAVYYCNADVYVSSKTHSSYPQWWGYDYWGQGTQVTVSS | low polyreactivity |
| QVQLVESGGRLVQAGGSLRLRCAASGFIFLVNAMGWYRQARGKESELVAAITTSGASTYYADSVKGRFTISRDNAKNTVYLQMNSLKPEDTAVYYCAAGSYARPEYGYWGQGTQVTVSS | low polyreactivity |
| QVQLVESGGGLVQAGGSLRLSCAASGSIFYYNAMGWYRQAPGKERELVAAITRSGGRTYYADSVKGRFTISRDNAKTTVYLQMNSLKPEDTAVYSCAARSAGPVTTLKYYYWGHGTQVTVSS | high polyreactivity |
| QVQLVESGGGLVQAGGSLRLSCAASGFIFGGNVMGWYRQAPGKEREFVAAITDGDGSTYYADSVKGRFTISRDNAKNTVYLQMNSLKPEDTAVYYCAADVYYADVYPVEYWGQGTQVTVSS | high polyreactivity |
| QVQLEESGGGLVQAGGSLRLICADSGFTFVYYARGWYRQAPGKERELVATISGNGGRTYYADSVKGRFTISRDNAKNTVYLQMNSLKPEDTAVYYCNADDPYLYYDSYDYWGQGTQVTVSS | low polyreactivity |
| QVQLVQSGGGLVQAGGSLRLSCAASGGTFQHNTMGWYRQAPGKEWQLVAAIRGSDGSTYYADSVKGRFTISRDNAKNTVYLQMNSLKPEDTAVYYCNRAYTASYIPGVGFWGQGTQVTVSS | high polyreactivity |
| QVQLVETGGGLFQAGGSLRLSCAPSGFTFRYNAMGWYRQAPGKERELVAAISWSGGSTYYADSVKGRFTISRDNAKNTVYLQMNSLKPEDTAVYYSNAEYDDYAGEFDYWGQGTQVTGSS | low polyreactivity |
| QVQLVESGGGLVQAGGSLRLSCAASGRIFSTYVMGCYRQAPGKERELVAAITRGGSTNYADSVKGRFTISRDNAKNTVYLQMNSLKPEDTAVYYCNAQRRGTYYLGQGTQVTVSS | high polyreactivity |
| QVQLVESGGGLVQAGGSLRLSCAASGRILSEYPMGWYRQARGKERELVAAITISDGSTYYADSVKGRFTISRDNAKNTVYLQMNSVNPDDTAVYYCAADSYDYNPAYLFCYKYYYWGQGSQVTVSS | low polyreactivity |
| QVQLVESGGGLVQAGGSLRLSCAASGRIFPYYAMGWYRQAPGKERELVAAISYSGGRTYYADSVKGRFTISRDNAKNTVYLQMNSLKPEDTAVYYCSAVVYLGYEYDYWGQGTQVTVSS | low polyreactivity |
| QVQLVESGGGLVQAGGSLRLSCAASGNTFAGNAKGCYRQAPGKERELVAAISRSGVTTRYADSVKGRFTISRDNAKNTVYLQMNSLKPEDTAVYYCNADPRLRQTRDYWGQGTQVTVSS | high polyreactivity |
| QVQLVESGGGLVQAGGSLRLSCAASGFIFTVNAMGRYRQAPGKERELVAAITQSGGNRSYADSVKGRFTISSDKAKNTVYLQMNSLKPEDTAVYYCNASSDTSRYGVSTYYYWGQGTQVTVSS | low polyreactivity |
| QVQLVESGGGLVQAGGSLRLSCAASGFIFAYNAMGWYRQAPGKEREFVAAISRSGGSTRYADSVKGRFTISRDNAKNTVYLQMNSLKPEDTAVYYCAARSGSWGQGTQVTVSS | high polyreactivity |
| QVQLVESGGGLVQAGGSLRLSCSASGSIFPYYAMGWSRQAPGKERELVAAISRSGGSTYYADSVKGRFTISRDNAKNTVYLQMNSLKPEDTAGYYCAAVGGVRPQQHYYYRYDYWGQGTQVTVSS | high polyreactivity |
| QVQLVESGGGLVQAGGSLRLSCAASGITFSPYTMGWYRQAPGKERELVAAINDGAITYYADSVKGRFTISRDNAKNTVYLQMNSLKPEDTAVFYCAAAAWGTDPFSTDYATYDYWGQVTQVTVSS | low polyreactivity |
| QVQLVESGGGLVQAGGSRRLSCAASGFTFSSYAMGWYRQAPGKERELVASISWRGGITYYADSVKGRFTISRDNAKNTVYLQMNSLKPEDTAVYYCAAVAFFRPKFYYWGQGTQVTVSS | high polyreactivity |
| QVQLVESGGGLVQAGGSLRLSCAASGSTFGPYAMGWYRQAPGQERELVATITRNGGSTYYADSVKGRFTISRDNAKNTVYLQMNSLKPEDTAVYYCAARLYYEIYDYGAVRIGYDYWGQGTQVTVSS | low polyreactivity |
| QVQLVESGGGLDQAGGSLRLSSAASGSIVDSNAMGWYRQAPGKASEMVASITSSGGSTYYADSVKGRFTISRDNAKNTVYLQMNSVKPEDTAVYYCAPKQAQSRYRLWSTSGYWGQGTQVTVSS | high polyreactivity |
